Assay: yeast display, Sf9 membrane polyspecificity reagent, FACS + sequencing; frameworks hold sequencing errors
How it was run: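 Galactose induction of a Saccharomyces cerevisiae BJ5465 synthetic nanobody display library ran 36–48 hours. The cells were then stained for 1 hour at 4 °C with 10% biotinylated, detergent-solubilized Sf9 membrane reagent, pulled down on streptavidin microbeads and FACS-sorted into low and high (top ~1%) gates on expression and reagent-binding fluorescence. Labels for polyreactivity follow the gate of origin.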

Row | Sequence | polyreactivity (PSR sort gate)
1 | HVQHVESGGGLVQAGGSLRVSCAASGSIFYTNVMGWYRQAPGKERELVARIDSGGSTNYADSVKGRFTISRDNAKNTVYLQMYSLKPEDTAVYYCAADWYIYDYWGQGTQVTVSS | low polyreactivity
2 | QVQLVESGGGLVQAGGSLRLSCAASGFIFGRNAMGWYRQAPGKERELVAVISKRSGNTYYADSVKGRFTISRDNAKNTVYLQMNSLKPEDTAVYYCNAVDQKLLRYDYWGQGTQVTVSS | high polyreactivity
3 | QVQLVESGGGLVQAGGRLRLRCAACGFTFARYAMGRSSQAPGKERELLAAITWSAGSTYYADSVKGRFTISRDTGKNTVFLQMTRLKPEDTAVYYCNALVIARNIEMDYWGQGTQVTVSS | high polyreactivity
4 | QVQLVESGGGLVQAGGRLRLSCAPSGRTFKYYAMGGYREAPGKERELVASISSGGNTNYADSVKGRFTISRDNATNSVYFQMNSLKPEDTAVYYCAASTWQNRRSYYWGQGTQVTVSS | high polyreactivity
5 | QVQLVESGGGLVQAGGSLRLSCAASGLTFSYYAMGWYRPAPGKERELVAAITSSGGNTYYADSVKGRFTISRDNEKNTVYLQMNSLKPEETAVYYCNARRYLRGYGYGYWGQGTQVTVSS | high polyreactivity
6 | QVQLQESGGGLVQAGGSLRLPCAASGNISDAGYMGWYRQAPGKQREFVAAIAAGSNTNYADSVKGSFTISRDNAKNTVYLQMNSLKPEDTAVIFFAVASYARVQYEYWGQGTQVTVNS | low polyreactivity
7 | QVHIVESGGRLFQAGGSLRLSCAASGFTFAYYAMGWYRQAPGKEREMVAAISRGGTSTYYADSVKGRFTISRDNATNPVYLQMNSLKPEDTAVFYCNAVKVGYSLYDFWGQGTQVTVSS | high polyreactivity
8 | QVQLVESGGGLVQAGGSLRLSCAASGRIFCKYAMGWYIQAPGKERELVAAISRSGASTYYADSVKGRFTISRDNAKNTVYLQMNSLKPEDTAVYYCAAVPPYNYRFRVYYWGQGTQVTVSS | high polyreactivity
9 | QVQLVESGGGLVQAGGSLRLSCAASGRIFEGYAMGWYRQAPGKERELVAAITGSGGGTYYADSVKGRFTISRDNAKNTVYLQMNSLKPEDTAVYYCATAYSAYQHPYGYWGKGTQVTVSS | low polyreactivity
10 | QVQLVESGGGLVQAGGSLRLSCAASGSIFGYYAMGCYRQAPGKERELDAAISASGGSTYYADSVKGRFTISRDNAKITVYFHMNSLKPEDTAVYYCAAVRSVTYIWARYPYGLEYCGQGTQVTVSS | high polyreactivity
11 | QVQLVESGGGLVQAGGSLRLSCAASGRTFFEYAMGWYRQAPGKEMDLVAIITNGATTNYADSVKGRFTISRDNAKNTVYLQMNSLKPEDTAVYYCAVAKWQPRRRKYYYWGQGTQVTVSS | high polyreactivity
12 | QVQLVESGGGLVQAGGSLRLSCAASGRTFFSNAMGWYRPAPGKERELVAAISNGDNTYYADSVKGRFTISRDNAKNTVYLQMNSLKPEDTAVYYCAADQYWSWIYYPVVEYDYWGQGTQVTVSS | low polyreactivity
13 | QVQLVESGGGLVQAGGSLRLSCAASGSIFVIYAMGWYRQAPGKERELVAAITWNGGSTFYADSVKGRFTISRDNAKNTVYLQMNSLKPEDTAVYYCNAVAVSNSGWEYDYWGQGTQVTVSS | low polyreactivity
14 | QFQLVESGGGLVQAGGSLRLSCAASGSTFDPYAMGWDTQAPGKEREFLADIDSSVGSTFYADSVKGRFTISRDNPKNTVYLQMNSLKPEDTAVYYCAAASRVAKGRWRLYDYWGQGTQVTVSS | high polyreactivity
15 | QDQHVESGGGLVQAGGSLRLSCAASGITSKNYAMGWSRQAPGKERELVAVISGRGGSTYYADSVKGRFTITRDNAKNTVYLQMNCLKPEDTAVYYCAAYGNQRRGAYPYKYDYWGQGTQVTVSS | high polyreactivity
16 | QVQLVESGGGLVQAGGSLRLSCAASGSIFYFNAMGWYRQAPGKERELVADISGSGGSTYYADSVKGRFTISRDNAKNTVYLQMNSLKPEDTAVYYCAARLYLHSWWYYAYDYWGQGTQVTVSS | high polyreactivity
17 | QVQLVESGGGLVQAGGSLRLSCAASGSIFGGYGMGWYRQAPGKERELVAAITSGSSTYYADSVKGRFTISRDNAKNTVYLQMNSLKAEDTAVYYCAARPYTHSAYEGDYWGRGTQVTVSS | low polyreactivity
18 | QVQLVESGGCLVQAGGSLRLSCAASGRTLDFNVLGWYRPAPGQERELVAAITWSGGSTYYADSVKGRFTISRDNAQNTVYLQMNSLKQEDTAGYYCAAKALYAYRLYDYSGQGTQVTVSS | high polyreactivity
19 | QVQLVESGGGLVQAGGSLRLICAASGSTFPRNAMGWYRQAPGKERELVATITSSGGGTYYADSVKGRFTISRDNAMNTVYLQMNSLKPEDTAVYYCNADGPAGDAFDYWGQGTQVTVSS | low polyreactivity
20 | QVQLVESGGGLVQAGGSLRLSCAASGRTLPYNAMAWYRQAPGKESELVAAITWSGGRTYYADSVKGRFTISRDNAKNTVYLQMNSLKPEDTAVYYCAAGKSSYGKPKYYYWGQGTQVTVSS | high polyreactivity
21 | QVQLVESGGGLVQAGGSLRLTCAPSRSIFVAYTMGWYRQAPGKERELVAAISRGGSTNYADSVKGRFTISRDNAKNTVYLQMNSLTPEETAVYYCAAKVWDGQLLYYWGQGTQVTVSS | low polyreactivity
22 | QVQLEESGGGLVQAGGTLRLSCAASGSIFRNYAMGWYRQAPGKEWQLVAAISRSGTSTYYADSVKGRFTISRDNAKNTVYFQMNSLKPEDYAVYYCNARTYVAVGFNYWGQGTQVTVSS | high polyreactivity

Row | Sequence | polyreactivity (PSR sort gate)
23 | QVQLVESGGGLVQAGGSLRLSCAASGSIFPGYAMGWYRQAPGKERELVATITWSGGSTYYADSVKGRFTISRDNAKNTVYLQMNSLKPADTAVYYCNADSNWYYQWNYYGLYDYWGQGTQVTVSS | low polyreactivity
24 | QVQLVESGGGLVQAGGSLRRSCAASGSTFTTYAMGWYRQAPGKERELGAAITSVGSTYYEDSVKGRCTISRDNAKNTVYLQLNSLKPEDTAVYYCNVVYRDQYNDWGQGTQVTVSW | low polyreactivity
25 | QVQLVESGGLIVQAGRSIRLTCAASGSIFYSYPMGWYRQAPGKERELVAAIRFSRGTTYYADSVKGRFTISRDNAKNTVYLQMNSLKPEDTAVYYCAATLSSYSYLFEYDYWGQCTQVTVSS | low polyreactivity
26 | QVQLVESGGGLVQAGGSLRLSCAASGRIFQVNAMGWYRQAPGKERELVAAITYSGGTTYYADSVKGRFTISRDNAKNTVYLQMNSLKPEDTAVYYCAAEGYGAQGDPWQYGYEYWGQGTQVTVSS | low polyreactivity
27 | QVQLVESGGGLVQAGGSLRLSCAASGRILYRYAMGWYRQAPGKERELVAAISRSGGDTYYADSVKGRFTISRDNAKNTVYLQMNSLKPEDTAVYYCAASFEGSGYRYDYWGQGTQVTVSS | low polyreactivity
28 | QVQLVESGGGLVQAGGSLRLSCAASGGSFIANAMGRYRQAPGTEREVVAAITSGGSTNYADSVKGRFTISRDNAKNTVYLQMNSLKPDDTAVYYCNAEQNPSGLYDYRGVEGEMGYWGQGTQVTVSS | low polyreactivity
29 | QVQLVESGGGLVQAGGSLRLSCAASGRIFSTYAMGWYRQAPGKERELVAAINSIGGRTYYADSVKGRFTISRDNAKNTVYLQMNSMKPEDTAVYYCAASRFRTGQEDDYWGQGTQVTVSS | high polyreactivity
30 | QFQLVESGGGLVQAGGSLRLSCAASGRIFIIYAMGWYRQAPGKERELVAAINRGATTNFADSVKGRFTISRDNAKNTVYLQMNSLKPEDTAVYYCAACSGPSLSRFLRYANDYWGQGTQVTLSS | high polyreactivity
31 | QVQLVESGGGLVQAGGSLRLSCAASGSTLGYYSMGWYRQAPGKERELVAAIRYSDGNTYYADSVKGRFTISRDNAKNTVYLQMNSLKPEDTAVYYCAADGGYYGRDYWGQVTQVTVSS | high polyreactivity
32 | QVQLVESGGGLVQAGGSLRLSCAASGSIFGVYAMGWYRQAPGKERELVAAIDSGGDTYYADSVKGRFTISRDNAKNTVYLQMNSLKPEDTAVYYCNAPYNRATYNYWGQGTQVTVSS | high polyreactivity
33 | QVQLVESGGGLVQAGGSLRLSCAASGSIFWSNAMGWYRQAPGKERELVAASSSGGSTYADSVKGRFTISRDTAKNTVYLQMNSLKPEDNAVYDCNARDYSVGRNDYWGQGTQVTVSS | low polyreactivity
34 | QVQLVESGGGLVQAGGSLRLSCAASGLIFGYYAMGWYRQAPGKERELVAAISWSGGRTYYADSVKGRFTISRDNAKNTVYLQMNSLKPEDTAVYYCAADTYPYIGGYYWGQVTQVTVSS | high polyreactivity
35 | QVQLVESGGGLVQAGGSLRLSCAASGSTFLTNVMGWYRQAPGKERELVAAITIGGSTNYADSVKGRFTISRDNAKNTVYLQMNSLKPEDTAVYYCATDIRRKPRYVDYEYWGQGTQVTVSS | low polyreactivity
36 | QVQLVESGGGLVHAGGSLRLSCAASGSTFVEYVMGWYRQAPGKERELVASIDVGTTSTRYADSVKGRFTISRDNAKNTVYLQMNSLKPEDTAVYYCNADGYYSGYWTNYDYWGQGTQVTVSS | low polyreactivity
37 | QVQLVESGGGLVQAGGSLRLTCPASGSTFHGYDMGCYRQAPGKERELVAAITSSGDDTYYADSVKGRFTISRDNAKNTVYLQMNSLKPEDTAVYYCAAEYTEGYTHDYWGQGSQVTVSS | low polyreactivity
38 | QFQLVESGGGLVQAGGSLRLSCAASGRTFGGYAMGWYRQAAGKVREFVAALTYRGASTYYSDSVKGRFTISRDNAKNTVYFQMNSLKPEDTAVYYCAAEGSIKYFVGYTWGYNYWGQGTQVTVSS | low polyreactivity
39 | QVQLVESGGGLVQAGGSLRLSCAASGSIFSINTMGWYRQAPGKERELVATITWSVGSTNYADSVKGRFTISRDNAKNTVYLQMNSLKPEDTAVYYCNADSSRWPYRLYRFYYWGQGTQVTVSS | low polyreactivity
40 | QVQVVESGGGLVQAGGSLRLSCAASGSTFSSYVMGWYRQATGKERELVAAISSIGGSTYYADSVKGRFTISRDNAKITVYLQMNSLKPEDTAVYYCAAEPPGSTYEGGYWGQGTQVTVSS | low polyreactivity
41 | QVQLVESGGGLVQAGGSLRLSCAASGRIFFYNVMGWYRQAPGKERELVAAITTIGGSTYYADSVKGRFTISRDNAKNTVYLQMNSLKPEDTAVYYCAAGWVTNSDGMDYWGQGTQVTVSS | low polyreactivity
42 | QVQLVESGGGLVQAGGSLRLSCAASGSIFNSYAMGWYRQAPGKERELVAAITRSDGSTYYADSVKGRFTISRDKAKNTVYLQMNSLKPEDTAVYYCAKGVGGYIYSEYDYWGQGTQVTVSS | low polyreactivity
43 | QVQLVESGGGLVQAGGSLPLSCAASGRIIDRYAMGWSRQATGKERDLVASISSGGSTYYADSVKGRFTISRDNAKNTVYLQMNSLKPEDTAVYYCNAEARSRRYRYDYWGQGTQVTVSS | high polyreactivity
